Laboratory results from patent publication US20250304677A1 (VIB VZW, published 2025).
Changes are numbered by the printed parent chain. Names and notes keep the numbering of the source. Values joined by “and” are separate entries in the source; they are usually repeats but may differ in a detail not shown here. Identical values can stand only once.

B1: P01500012: P0150001 with M32I (VHH)
VHH: EVQLVESGGGLVQPGGSLRLSCAASGSGFSGIIMGWYRQAPGKQRELVATVTSHGTTNYADSVKGRFTISRDNAKNTVYLQMNSLRPEDTAVYYCNAHFPGIYWGKGTLVTVSS
notes: Entry carries a His6 tag
B2: P01500090: P0150001 with A24V, S27L, M32P, N67E (VHH)
VHH: B1 VHH with A24V, S27L, I32P, N76E
B3: P01500014: P0150001 with M32P (VHH)
VHH: B1 VHH with I32P
notes: Entry carries a His6 tag
B4: P01500087: P0150001 with A24L, S27A, M32P, N67E (VHH)
VHH: B1 VHH with A24L, S27A, I32P, N76E
B5: P01500086: P0150001 with A24L, S27A, M32P (VHH)
VHH: B1 VHH with A24L, S27A, I32P
B6: P01500089: P0150001 with S27T, M32I, N76D (VHH)
VHH: B1 VHH with S27T, N76D
B7: P01500084: P0150001 with A24V, S27T, M32I, N76D (VHH)
VHH: B1 VHH with A24V, S27T, N76D
B8: P01500085: P0150001 with A24V, S27L, M32P (VHH)
VHH: B1 VHH with A24V, S27L, I32P
B9: P01500088: P0150001 with S27T, M32I (VHH)
VHH: B1 VHH with S27T
B10: P01500057: P01500001(G26E, G28P, D72E, N73G)-FLAG3-HIS6 (VHH)
VHH: B1 VHH with G26E, G28P, I32M, D72E, N73G
notes: also called P0150057
B11: P01500050: P01500001(G28T, D72P)-FLAG3-HIS6 (VHH)
VHH: B1 VHH with G28T, I32M, D72P
notes: also called P0150050
B12: P01500055: P01500001(V51R, D72E, N73G)-FLAG3-HIS6 (VHH)
VHH: B1 VHH with I32M, V51R, D72E, N73G
notes: also called P0150055
B13: P01500047: P01500001(G26E, G28T, S30I, I33L)-FLAG3-HIS6 (VHH)
VHH: B1 VHH with G26E, G28T, S30I, I32M, I33L
notes: also called P0150047
B14: P01500052: P01500001(V51R, D72E)-FLAG3-HIS6 (VHH)
VHH: B1 VHH with I32M, V51R, D72E
notes: also called P0150052
B15: P01500056: P01500001(I33L, D72P, N73G)-FLAG3-HIS6 (VHH)
VHH: B1 VHH with I32M, I33L, D72P, N73G
notes: also called P0150056
B16: P01500051: P01500001(D72E, N73G)-FLAG3-HIS6 (VHH)
VHH: B1 VHH with I32M, D72E, N73G
notes: also called P0150051
B17: P01500046: P01500001(N73P)-FLAG3-HIS6 (VHH)
VHH: B1 VHH with I32M, N73P
notes: also called P0150046
B18: P01500054: P01500001(I33L, N73P)-FLAG3-HIS6 (VHH)
VHH: B1 VHH with I32M, I33L, N73P
notes: also called P0150054
B19: P01500048: P01500001(S30I, D72P)-FLAG3-HIS6 (VHH)
VHH: B1 VHH with S30I, I32M, D72P
notes: also called P0150048
B20: P01500053: P01500001(S30I, I33L, N73P)-FLAG3-HIS6 (VHH)
VHH: B1 VHH with S30I, I32M, I33L, N73P
notes: also called P0150053
B21: P01500049: P01500001(G26E)-FLAG3-HIS6 (VHH)
VHH: B1 VHH with G26E, I32M
notes: also called P0150049
B22: 2MFR67 (E72D, D72N, S74A)-NT (VHH, not shown: small tags and cut ends)
VHH: B1 VHH with E1Q, V5Q, P14A, I32M, Y79L, R86K, L109Q
notes: Second substitution printed D72N; also called 2MFR67 triple mutant
B23: 2HFO9 (I51V,G54H)-NT (VHH)
VHH: B1 VHH with E1Q, V5Q, P14A, I32M, Y79L, R86K, L109Q
notes: not shown: neurotensin tridecapeptide (NT) and any linker or tags of the fusion
B24: 2HFO9(G54H)-NT (VHH)
VHH: B1 VHH with E1Q, V5Q, P14A, I32M, V51I, Y79L, R86K, L109Q
notes: as for B23
B25: 2HFO9(I51V)-NT (VHH)
VHH: B1 VHH with E1Q, V5Q, P14A, I32M, H54G, Y79L, R86K, L109Q
notes: as for B23

The binders below were run against T1, human folate receptor alpha (hFRα), recombinant protein (human, UniProt P15328 25-233) (assay: BLI).
T1 construct: Bought recombinant proteins (His-tagged, or biotinylated via Avi-tag, e.g. AcroBiosystems FO1-H82E2, F01-H52H1); also called hFOLR1; huFOLR1
T1 sequence (P15328 25-233 limits assumed): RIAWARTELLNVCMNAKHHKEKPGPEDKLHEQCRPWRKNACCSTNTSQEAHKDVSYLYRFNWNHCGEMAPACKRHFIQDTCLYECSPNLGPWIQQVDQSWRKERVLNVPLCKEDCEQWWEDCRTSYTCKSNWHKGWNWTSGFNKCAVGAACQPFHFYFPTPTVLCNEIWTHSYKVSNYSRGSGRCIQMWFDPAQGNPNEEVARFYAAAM
Outline: (§1)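 Biotinylated human and mouse folate receptor alpha were immobilised on streptavidin biosensors, and off-rates were read by biolayer interferometry, with a 1:1 binding model applied in the calculation. Each variant's koff is expressed as a signed fold change relative to its wild-type VHH, positive as wild-type over variant for a better off-rate and negative as variant over wild-type for a worse one.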

koff [s⁻¹]	nm (Fold wt)	Binder
0.0712	5.4	B1
0.0259	2	B2
0.0255	2	B3
0.0269	2	B4
0.024	1.8	B5
0.0747	5.7	B6
0.0336	2.5	B7
0.0159	1.2	B8
0.381	29	B9

Each binder was assayed against T2, mouse folate receptor alpha (mFRα), recombinant protein (mouse, UniProt P35846 25-232) (assay: BLI).
T2 construct: Bought recombinant proteins (e.g. biotinylated, Acro Biosystems FO1-M82E9); also called mFOLR1; Ms FOLR1
T2 sequence (P35846 25-232 limits assumed): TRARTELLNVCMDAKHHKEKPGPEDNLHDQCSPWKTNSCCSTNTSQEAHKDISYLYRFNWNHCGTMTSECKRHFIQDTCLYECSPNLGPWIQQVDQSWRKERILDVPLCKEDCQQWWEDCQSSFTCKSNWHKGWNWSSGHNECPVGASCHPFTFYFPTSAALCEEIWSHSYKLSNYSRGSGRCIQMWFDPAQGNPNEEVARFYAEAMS
Outline: as §1

koff [s⁻¹]	nm (Fold wt)	Binder
0.00762	4.7	B1
0.00346	2.1	B2
0.00241	1.5	B3
0.00376	2.3	B4
0.0035	2.1	B5
0.00614	3.8	B6
0.00649	4	B7
0.00176	1.1	B8
0.0154	9.4	B9

The binders below were run against T1, human folate receptor alpha (hFRα), … (assay: BLI, purified VHH).
Outline: (§2)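 VHH proteins carrying a flag3-His6 tag were expressed in TG-1 E. coli at 0.5 L scale. Each was purified from the periplasmic fraction on Ni Sepharose FastFlow columns, then desalted, and its purity was checked by SDS-PAGE. Biolayer interferometry was used to measure off-rates to human, mouse and cynomolgus folate receptor alpha.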

koff [s⁻¹]	Binder
0.000307	B10
0.00105	B11
0.000382	B12
0.000971	B13
0.00146	B14
0.000265	B15
0.000546	B16
0.00361	B17
0.000968	B18
0.0013	B19
0.000943	B20
0.00569	B21

What follows are binders tested against T2, mouse folate receptor alpha (mFRα), … (assay: BLI, purified VHH).
Outline: as §2

koff [s⁻¹]	Binder
2.11e-05	B10
0.000168	B11
2.4e-05	B12
0.000219	B13
0.000246	B14
3.38e-05	B15
8.41e-05	B16
0.000754	B17
0.000147	B18
0.000142	B19
0.000191	B20
0.00105	B21

These binders were tested against T3, cynomolgus folate receptor alpha, recombinant (cynomolgus, UniProt A0A2K5U044 25-233) (assay: BLI, purified VHH).
T3 construct: also called cyFOLR1; cynomolgus FRα
T3 sequence (A0A2K5U044 entry or part of it): as the sequence (P15328 25-233 limits assumed) above, with I2T, W4R, R37K, A146P, H171Y counted along it
Outline: as §2

koff [s⁻¹]	Binder
0.000234	B10
0.00109	B11
4.24e-05	B12
0.000219	B13
0.00281	B14
0.00034	B15
0.00078	B16
0.0036	B17
0.000147	B18
0.00133	B19
0.000167	B20
0.000393	B21

The binders below were run against T1, human folate receptor alpha (hFRα), … (assay: BLI, Avi-biotinylated FRα).
Description: (§3) Purified VHHs ^{∘}100 nM) were analysed for binding to avi-tagged biotinylated FRα protein captured on streptavidin-biosensors via BLI.
(§4) Off-rates of purified variants were determined to human, mouse, and cynomolgus FRα in BLI. In addition, binding of the affinity optimised variants to cell-expressed human FRα on HeLa cells was determined by flow cytometry ^{∘}FIG. 10 B).

koff	Binder
0.000316 s⁻¹	B10
0.00128 s⁻¹	B11
0.000382 s⁻¹	B12
0.00119 s⁻¹	B13
0.0018 s⁻¹	B14
0.000295 s⁻¹	B15
0.000474 s⁻¹ and 0.000555 s⁻¹	B16
0.00371 s⁻¹ and 0.004 s⁻¹	B17
0.000937 s⁻¹	B18
0.00147 s⁻¹	B19
0.000922 s⁻¹ and 0.00105 s⁻¹	B20
0.00648 s⁻¹	B21

What follows are binders tested against T2, mouse folate receptor alpha (mFRα), … (assay: BLI, Avi-biotinylated FRα).
Description: as §3, §4

koff	Binder
2.11e-05 s⁻¹	B10
0.000168 s⁻¹	B11
2.4e-05 s⁻¹	B12
0.000219 s⁻¹	B13
0.000246 s⁻¹	B14
3.38e-05 s⁻¹	B15
4.99e-05 s⁻¹ and 8.33e-05 s⁻¹	B16
0.000777 s⁻¹ and 0.000731 s⁻¹	B17
0.000147 s⁻¹	B18
0.000142 s⁻¹	B19
0.000167 s⁻¹ and 0.000214 s⁻¹	B20
0.000826 s⁻¹	B21

These binders were tested against T4, human folate receptor alpha expressed on cells (transfected HEK293T, HeLa, MCF7, MDA-MB-231) (human, UniProt P15328 25-234) (assay: flow cytometry on HeLa cells, anti-Flag detection).
T4 construct: HEK293T transiently transfected with human FOLR1; also called native human FRα; cell-expressed human FOLR1
T4 sequence (P15328 25-234 limits assumed): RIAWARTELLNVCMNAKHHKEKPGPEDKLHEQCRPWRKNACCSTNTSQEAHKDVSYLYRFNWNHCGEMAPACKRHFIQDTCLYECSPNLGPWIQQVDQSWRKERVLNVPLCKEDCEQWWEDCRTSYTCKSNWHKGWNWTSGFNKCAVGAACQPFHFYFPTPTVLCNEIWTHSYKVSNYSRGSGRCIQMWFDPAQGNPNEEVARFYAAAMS
Description: EC₅₀ values are found in Table 9. Detection of VHH cell binding was done through anti-Flag M2 mIgG1 followed by anti-mFc-PE in flow cytometry. Results are depicted as mean fluorescence intensity ^{∘}MFI).
as §4

EC50 [nM]	MFI top [MFI]	Binder
2.56	53800	B10
3.61	62500	B11
3.77	59000	B12
3.19	59100	B13
4.35	53900	B14
2.52	55300	B15
3.31	61000	B16
6.91	50800	B17
5.18	55800	B18
2.46	59800	B19
2.63	51200	B20
10.9	46600	B21

These binders were tested against T1, human folate receptor alpha (hFRα), … (assay: BLI, biotinylated FOLR1 on streptavidin biosensors).
Description: (§5) The off-rates of the 2HFO9 ^{∘}FIG. 5A) and 2MFR67 ^{∘}FIG. 5B) mutants and the three wild-type ^{∘}WT) VHHs from family 3 were determined by biolayer interferometry ^{∘}BLI) on both mouse and human biotinylated folate receptor alpha ^{∘}FOLR1) that was immobilized on streptavidin biosensors. The off-rates were calculated using a 1:1 binding model. The fold change compared to the off-rates of the corresponding WT VHH is represented as the WT VHH off-rate divided by the off-rate of the mutant for the VHHs that show an improved off-rate compared to the WT. For the VHHs that show a worse off-rate compared to the WT, the fold change is represented as the negative value of the mutant VHH off-rate divided by the WT off-rate. The red bars represent the WT 2HFO9 and 2MFR67 in the upper and lower panel respectively.

Fold hu/ms (koff)	Fold to WT (koff)	koff [s⁻¹]	Binder
7	2.9	0.0173	B22
6	0.7	0.0145	B23
6	0.6	0.0133	B24
2	1	0.0205	B25

What follows are binders tested against T2, mouse folate receptor alpha (mFRα), … (assay: BLI, biotinylated FOLR1 on streptavidin biosensors).
Description: as §5

Fold to 2HF042 (koff)	Fold to WT (koff)	koff [s⁻¹]	Binder
0.9	2.6	0.00258	B22
0.9	0.3	0.00236	B23
1	0.3	0.00215	B24
0.2	1.8	0.012	B25
